In patent publication US20200325237A1 (AVIDITY BIOSCIENCES, published 2020):
Where two headings read alike, the source gives them in different places.

T1: TfR2 (transferrin receptor 2) (UniProt Q9UP52 105-801, limits assumed)
T1 sequence (looked up): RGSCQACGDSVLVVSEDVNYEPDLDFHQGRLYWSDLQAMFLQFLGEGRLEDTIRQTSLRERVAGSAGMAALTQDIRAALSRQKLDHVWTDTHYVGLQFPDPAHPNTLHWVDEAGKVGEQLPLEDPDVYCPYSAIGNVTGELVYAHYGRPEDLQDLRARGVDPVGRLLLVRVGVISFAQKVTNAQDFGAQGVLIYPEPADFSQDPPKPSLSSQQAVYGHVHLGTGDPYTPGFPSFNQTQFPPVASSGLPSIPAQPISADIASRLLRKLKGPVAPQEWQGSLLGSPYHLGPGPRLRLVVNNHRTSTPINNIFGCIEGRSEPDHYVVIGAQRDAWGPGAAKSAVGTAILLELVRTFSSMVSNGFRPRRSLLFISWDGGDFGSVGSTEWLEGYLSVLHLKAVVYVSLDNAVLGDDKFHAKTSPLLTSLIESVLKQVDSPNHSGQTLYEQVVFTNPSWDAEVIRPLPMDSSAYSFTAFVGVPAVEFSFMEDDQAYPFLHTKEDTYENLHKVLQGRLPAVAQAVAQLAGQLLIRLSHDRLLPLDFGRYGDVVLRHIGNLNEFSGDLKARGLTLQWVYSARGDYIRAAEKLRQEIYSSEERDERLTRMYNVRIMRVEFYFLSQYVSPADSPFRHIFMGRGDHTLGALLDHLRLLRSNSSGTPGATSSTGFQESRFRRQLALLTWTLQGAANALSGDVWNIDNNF


Columns and labels:
[1] = target: T2, hTfR (human transferrin receptor, source and construct not stated) (human, UniProt P02786 89-760, limits assumed); assay: ELISA; ratio of the Kd on HFE-captured hTfR to the Kd on directly coated hTfR
T2 sequence (P02786 89-760 limits assumed): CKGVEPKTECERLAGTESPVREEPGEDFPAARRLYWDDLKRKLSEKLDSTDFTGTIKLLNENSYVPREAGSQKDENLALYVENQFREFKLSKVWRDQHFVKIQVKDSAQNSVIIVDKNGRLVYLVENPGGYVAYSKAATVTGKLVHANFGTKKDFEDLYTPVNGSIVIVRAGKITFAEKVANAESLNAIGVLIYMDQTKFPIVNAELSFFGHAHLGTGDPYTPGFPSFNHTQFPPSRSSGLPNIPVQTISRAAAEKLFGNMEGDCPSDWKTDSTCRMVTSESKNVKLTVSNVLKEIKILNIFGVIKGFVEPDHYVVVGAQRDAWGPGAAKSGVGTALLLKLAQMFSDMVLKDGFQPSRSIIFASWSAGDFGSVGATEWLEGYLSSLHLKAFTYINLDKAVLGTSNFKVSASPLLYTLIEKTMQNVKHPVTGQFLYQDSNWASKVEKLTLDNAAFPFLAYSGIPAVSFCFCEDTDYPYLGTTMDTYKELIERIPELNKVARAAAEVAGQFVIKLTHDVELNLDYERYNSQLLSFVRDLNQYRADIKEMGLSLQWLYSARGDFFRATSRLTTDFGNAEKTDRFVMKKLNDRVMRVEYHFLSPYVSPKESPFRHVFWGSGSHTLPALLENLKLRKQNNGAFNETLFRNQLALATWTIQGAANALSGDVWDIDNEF

[2] = target: T2, hTfR (human transferrin receptor, …); assay: ELISA, biotinylated antibody on hTfR captured by plate-coated human holo-transferrin (Tf+TfR); fit: specific binding with Hill slope
Protocol: (§1) Antibodies were biotinylated using 50 fold molar excess of EZ-Link No weigh NHS-Biotin (Thermo Scientific A39256) following manufacturer's instructions. Half-well high-bind plates (Costar #3690) were coated with 500 ng/mL purified human holo-transferrin (R&D Systems 2914-HT) in PBS at 4° C. overnight. For comparison, plates were coated directly with hTfR. Plates were washed four times with 100 μL of Tris buffered saline+Tween (20×TBST, Cell Signaling 9997S). 100 μL of Superblock (ThermoFisher PI-37535) was added to each well and incubated for 1 hour at room temperature. The wash step was repeated before the addition of the hTfR (200 ng/mL in 25 μl) to the transferrin plates, or Superblock to the hTfR plates, and incubated for 30 minutes. Biotinylated antibodies were diluted to 20 nM for the high concentration and added to the plates with 3-fold serial dilution. 25 μl/well was added to the 25 μl already in the plate. Plates were incubated for 1 hour, and wash step was repeated. Streptavidin-HRP (R&D Systems DY998) was added following recommended dilution on the package insert, and a final wash step was done. Binding was measured by the addition of 50 μL of 1-Step™ Ultra TMB-ELISA (ThermoFisher, 34028), incubated for 5 minutes, and the reaction was stopped with the addition of 25 μL of Stop Solution 2N sulfuric Acid (R&D Systems DY994). Absorbance was measured at 450 nm, with reference wavelength 570 nm subtracted. Binding constants were determined using GraphPad Prism Specific Binding with Hill Slope. Change in antibody binding constants in the presence versus absense of transferrin is considered relative to the commercially available antibody which is known to have an overlapping epitope with transferrin (AF2474, R&D Systems).

[3] = target: T3, recombinant human transferrin receptor protein (Sino Biological 11020-H07H) (human, UniProt P02786 89-760); assay: ELISA on plate-coated recombinant human TfR1 (CD71); fit: specific binding with Hill slope (row labels blank in the lower block; row taken by the order Bmax, h, Kd)
T3 construct: Bought protein coated on ELISA plates; also called recombinant human TfR1; human TfR1
T3 sequence (P02786 89-760 limits assumed): as above
Protocol: (§2) Half-well high-binding 96-well plates (Costar #3690) were coated with recombinant human transferrin receptor protein (Sino Biological 11020-H07H) or recombinant cyno transferrin receptor protein (Sino Biological 90253-C07H) at 1 ng/μL in PBS (Gibco 14190) and incubated overnight at 4° C. Plates were washed four times with 100 μL of Tris buffered saline+Tween (20×TBST, Cell Signaling 9997S). 100 μL of Superblock (ThermoFisher PI-37535) was added to each well and incubated for 1 hour at room temperature. The wash step was repeated before the addition of the samples. Samples were added at concentrations up to 10 nM, 50 μL/well. Plates were incubated for another hour at room temp and wash step repeated. Secondary antibody (Peroxidase AffiniPure Goat Anti-Human IgG, Fcγ Fragment Specific, Jackson Immunoresearch, 109-035-098) was diluted 1:5000 in Superblock and 50 μL/well added. Plates were incubated for 1 hour at room temperature and washed one more time. Binding was measured by the addition of 50 μL of 1-Step™ Ultra TMB-ELISA (ThermoFisher, 34028), incubated for 5 minutes, and the reaction was stopped with the addition of 25 μL of Stop Solution 2N sulfuric Acid (R&D Systems DY994). Absorbance was measured at 450 nm, with reference wavelength 570 nm subtracted. Binding constants were determined using GraphPad Prism Specific Binding with Hill Slope.

[4] = target: T2, hTfR (human transferrin receptor, …); assay: SPR (BioRad ProteOn XPR36), mAb captured on Protein A, hTfR as analyte, 25 C
Protocol: The binding kinetics of nine exemplary humanized anti-TfR antibodies and the parent chimeric antibody were characterized. Studies were run on a BioRad ProteOn XPR36 optical biosensor using a GLM sensor chip coated with Protein A for mAb capture. Running buffer included 10 mM EPES, 150 mM NaCl, pH 7.4 with 0.05 tween-20 with 0.2 mg/ml BSA. Data were collected at 25 degrees C. All mAbs were diluted into running buffer to 2 ug/ml based on the stock concentration provided. Each was then captured for 40 seconds over a Protein A surface.
hTfR (100 ug) was dissolved into […] of water to yield a 4.3 uM stock concentration. hTfR was dilted to 43 nM as the highest concentration and tested in a 3 fold dilution series. hTfR was injected at 200 ul/min for 2 minutes followed by a one-hour dissociation phase.

[5] = target: T1, TfR2 (transferrin receptor 2); assay: A450 plate assay on TfR2 (method not described in the text)
[6] = target: T2, hTfR (human transferrin receptor, …); assay: ELISA; ratio of the Kd on transferrin-captured hTfR to the Kd on directly coated hTfR
Protocol: as §1

[7] = target: T2, hTfR (human transferrin receptor, …); assay: ELISA, biotinylated antibody on hTfR captured by plate-coated HFE (HFE+TfR); fit: specific binding with Hill slope
[8] = target: T4, recombinant cyno transferrin receptor protein (Sino Biological 90253-C07H) (cyno, UniProt H9EXL1 89-760 (rhesus entry)); assay: ELISA on plate-coated recombinant cyno TfR1 (CD71); fit: specific binding with Hill slope
T4 construct: Bought protein coated on ELISA plates; also called recombinant cyno TfR1; cynoTfR1
T4 sequence (chain, as listed by the source C07H C07H): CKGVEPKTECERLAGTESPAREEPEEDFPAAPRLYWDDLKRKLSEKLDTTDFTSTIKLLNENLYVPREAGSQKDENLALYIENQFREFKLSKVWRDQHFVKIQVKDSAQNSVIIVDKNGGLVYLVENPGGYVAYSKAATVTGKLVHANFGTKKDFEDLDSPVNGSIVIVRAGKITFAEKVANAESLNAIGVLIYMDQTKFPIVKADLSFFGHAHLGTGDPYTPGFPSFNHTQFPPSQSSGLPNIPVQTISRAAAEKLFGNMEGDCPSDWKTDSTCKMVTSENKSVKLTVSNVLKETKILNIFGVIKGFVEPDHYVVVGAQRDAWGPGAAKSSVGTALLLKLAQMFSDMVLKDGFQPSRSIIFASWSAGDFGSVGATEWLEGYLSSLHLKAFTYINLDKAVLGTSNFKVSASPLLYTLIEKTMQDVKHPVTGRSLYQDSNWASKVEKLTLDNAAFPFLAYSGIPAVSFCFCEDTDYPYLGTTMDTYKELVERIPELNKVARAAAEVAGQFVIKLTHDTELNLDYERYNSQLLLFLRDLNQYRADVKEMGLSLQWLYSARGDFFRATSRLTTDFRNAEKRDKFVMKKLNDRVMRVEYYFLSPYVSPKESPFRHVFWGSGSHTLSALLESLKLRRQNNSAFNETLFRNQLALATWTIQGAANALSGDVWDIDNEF
Protocol: as §2

[9] = target: T3, recombinant human transferrin receptor …; assay: ELISA on plate-coated recombinant human TfR1; fit: specific binding with Hill slope
Protocol: as §2, with “100” for “Half-well high-binding 96-well plates (Costar #3690) were coated with recombinant human transferrin receptor protein (Sino Biological 11020-H07H) or recombinant cyno transferrin receptor protein (Sino Biological 90253-C07H) at 1 ng/μL in PBS (Gibco 14190) and incubated overnight at 4° C. Plates were washed four times with 100 μL of Tris buffered saline+Tween (20×TBST, Cell Signaling 9997S). 100”
(§3) Half-well high-binding 96-well plates (Costar #3690) were coated with recombinant human transferrin receptor protein (Sino Biological 11020-H07H) or recombinant cyno transferrin receptor protein (Sino Biological 90253-C07H) at 1 ng/μL in PBS (Gibco 14190) and incubated overnight at 4° C. […] Absorbance was measured at 450 nm, with reference wavelength 570 nm subtracted. […]

[10] = target: T4, recombinant cyno transferrin receptor …; assay: ELISA on plate-coated recombinant cyno TfR1 (CD71); fit: specific binding with Hill slope; remark: listed apart in the source
Protocol: as §2, with “100” for “Half-well high-binding 96-well plates (Costar #3690) were coated with recombinant human transferrin receptor protein (Sino Biological 11020-H07H) or recombinant cyno transferrin receptor protein (Sino Biological 90253-C07H) at 1 ng/μL in PBS (Gibco 14190) and incubated overnight at 4° C. Plates were washed four times with 100 μL of Tris buffered saline+Tween (20×TBST, Cell Signaling 9997S). 100”
as §3

Row | Kd(HFE+TfR)/Kd(TfR) [1] | Bmax [2] [A450] | Kd [2] [pM] | h [2] | Bmax [3] [% max binding] | Kd [3] [pM] | h [3] | Kd [4] [pM] | koff [4] [s⁻¹] | kon [4] [M⁻¹ s⁻¹] | binding result [5] | Kd(Tf+TfR)/Kd(TfR) [6] | Bmax [7] [A450] | Kd [7] [pM] | h [7] | Bmax [8] [% max binding] | Kd [8] [pM] | h [8] | Kd [9] [pM] | Kd [10] [pM] | Binder
1 | 10.2 | 3.52 | 84.9 | 1.46 | 93.7 | 9.87 | 1.25 | 13.1 | 9.14e-06 | 697000 | no binding (tested: 1000 nM) | 2.5 | 2.79 | 346 | 1.28 | 94.4 | 17.9 | 1.53 | – | – | 13E4-Variant 15ii (antibody, human IgG1, kappa, L234A L235A, Humanized hIgG1 with Fc mutations; also called hIgG1 TfR-Var15ii) heavy: QVQLVQSGAEVKKPGASVKVSCKASGYTFTNYWMHWVRQAPGQGLEWMGEINPIQGRSNYAEKFQGRVTLTVDTSSSTAYMELSSLRSEDTATYYCARGTRAMHYWGQGTLVTVSSASTKGPSVFPLAPSSKSTSGGTAALGCLVKDYFPEPVTVSWNSGALTSGVHTFPAVLQSSGLYSLSSVVTVPSSSLGTQTYICNVNHKPSNTKVDKRVEPKSCDKTHTCPPCPAPEAAGGPSVFLFPPKPKDTLMISRTPEVTCVVVDVSHEDPEVKFNWYVDGVEVHNAKTKPREEQYNSTYRVVSVLTVLHQDWLNGKEYKCGVSNKALPAPIEKTISKAKGQPREPQVYTLPPSREEMTKNQVSLTCLVKGFYPSDIAVEWESNGQPENNYKTTPPVLDSDGSFFLYSKLTVDKSRWQQGNVFSCSVMHEALHNHYTQKSLSLSPG light: DIQMTQSPSSLSASVGDRVTITCRTSENIYSNLAWYQQKPGKAPKLLIYAGTNLADGVPSRFSGSGSGTDYTLTISSLQPEDFANYYCQHFWGTPLTFGGGTKVEIKRTVAAPSVFIFPPSDEQLKSGTASVVCLLNNFYPREAKVQWKVDNALQSGNSQESVTEQDSKDSTYSLSSTLTLSKADYEKHKVYACEVTHQGLSSPVTKSFNRGEC
2 | – | – | – | – | – | – | – | – | – | – | – | – | – | – | – | – | – | – | 3.18 | 4.99 | hTfR1.IgG2 mAb-SSB siRNA conjugate (DAR1) (antibody, DAR 1, V domains shown, SSB siRNA duplex joined through a bis-maleimide (BisMal) linker to TCEP-reduced cysteines, DAR1; chain and positions not stated; remaining free cysteines capped with N-ethylmaleimide, also called TfR-SSB DAR 1; conjugated hTfRL.IgG2 mAb) VH: QVQLQQPGAELVKPGASVKLSCKASGYTFTNYWMHWVKQRPGQGLEWIGEINPINGRSNYGERFKTKATLTVDKSSSTAYMQLSSLTSEDSAVYYCARGTRAMHYWGQGTSVTVSS VL: DIQMTQSPASLSVSVGETVTITCRTSENIYNNLAWYQQKQGKSPQLLVYAATNLADGVPSRFSGSGSGTQYSLKINSLQSEDFGNYYCQHFWGTPLTFGAGTKLELKR
3 | – | – | – | – | – | – | – | – | – | – | – | – | – | – | – | – | – | – | 3.22 | 4.87 | hTfR1.IgG2 mAb (chimeric human IgG2 anti-hTfR1 antibody) (antibody, V domains shown, The heavy variable region is printed there only as images; also called hTfRL.IgG2 mAb; TfR1-IgG2 mAb chimera) VH: QVQLQQPGAELVKPGASVKLSCKASGYTFTNYWMHWVKQRPGQGLEWIGEINPINGRSNYGERFKTKATLTVDKSSSTAYMQLSSLTSEDSAVYYCARGTRAMHYWGQGTSVTVSS VL: DIQMTQSPASLSVSVGETVTITCRTSENIYNNLAWYQQKQGKSPQLLVYAATNLADGVPSRFSGSGSGTQYSLKINSLQSEDFGNYYCQHFWGTPLTFGAGTKLELKR
